These results are taken from patent publication US20240325557A1, “TREATMENT OF CANCER” (INNATE PHARMA, priority 2020, published 2024).

Assay [1] concerns SUM190 cells. As to the kind of experiment: In vivo efficacy of ADCs, SUM190 mouse model of human breast cancer (Example 9). Conditions: single i.v. injection 3 mg/kg; antibodies conjugated to ggfg-Dxd, DAR=8. The method, then:
When tumors reached a volume between 195 and 250 mm3, mice were randomized into groups of 9 mice for intravenous treatment with a single injection of 3 mg/kg of camptothecin ADCs. Tumor growth were followed twice a week. Kaplan Meier survival curves were established by using GraphPad Prism V7 software according to the following criteria: When the tumor volume reached 1500 mm3, mice were euthanized and considered dead on the day of sacrifice (D).

Assay [2] relates to SUM190 cells. As to the kind of experiment: Fab-ZAP internalization assay (CTG cell viability). Format: cell-based, human. As for the experimental part:
(§1) The ability of the anti-Nectin-4 antibodies to induce nectin-4 internalization was assessed on SUM190 cell lines expressing lower levels of nectin-4 and in SUM185 cells expressing higher levels of Nectin-4. The internalization was indirectly determined by using the Fab-ZAP human Internalization Kit (Advanced Targeting Systems) to allow the anti-Nectin-4 antibodies to target and eliminate Nectin-4 expressing cells, with measurement of cell viability using the CTG substrate (CellTiter-Glo® Luminescent Cell Viability Assay (Promega). Fab-ZAP is a chemical conjugate of goat anti-human monovalent antibody and the ribosome-inactivating protein, saporin. The antibodies used are affinity-purified polyclonal antibodies against both the heavy and light chain of human IgG. This secondary conjugate is used to evaluate the potential of a primary antibody to internalize.
(§2) Briefly, a concentration range of the anti-Nectin-4 antibodies or the controls were incubated with SUM190 or SUM185 cells. After 45-minute incubation at 4° C., the non-bound antibodies were washed away and Fab-ZAP was added on top of the cells. The newly formed complexes (anti-nectin-4 antibody+Fab-ZAP) internalized into the cells where the Saporin was released and stopped the protein synthesis leading to cell death. The internalization capability of the antibody was indirectly determined by the cell's viability: the more efficient was the cell killing; the better was the internalization capability of the antibody.

Assay [3] deals with SUM185 cells. As to the kind of experiment: Fab-ZAP internalization assay (CTG cell viability). Format: cell-based, human. The method, then:
as §1, §2

The subject of assay [4] is SUM190 cells. As to the kind of experiment: In vitro ADC cytotoxicity, 5 days, CTG. Conditions: antibodies conjugated to ggfg-Dxd or PEG (8U)-Val-Ala-PAB-Exatecan, DAR=8. The format is cell-based, human.
Procedure: We assessed the ability of the 5E7 antibody (mAb6) conjugated with camptothecin analogues (Dxd or Exatecan) to kill SUM190 cells. […] A first ADC was prepared in which antibodies were conjugated at 8 toxins per antibody (DAR=8) to a camptothecin analogue (Dxd) via a linker comprising an intracellularly cleavable tetrapeptide linker (GGFG) having the structure shown below, referred to as ggfg-Dxd:
A second ADC was prepared in which antibodies were conjugated at 8 toxins per antibody (DAR=8) to another camptothecin analogue (exatecan) via the cleavable linker having the structure below, referred to as PEG (8U)-Val-Ala-PAB-Exatecan:
Luminescence vs. Ab concentration was plotted on graph.
For each ADC, a concentration range of ADC was incubated with nectin-4-expressing cells. After incubation, CTG substrate was added at 1/1 ratio and the luminescent signal was read with a plate reader (Enspire). It allowed quantifying the ATP present (indicator of metabolically active cells) which was proportional to cell viability.

B1: N41 (antibody, V domains shown)
VH: QVQLKQSGPGLVQPSQSLSITCTVSGFSLTNYGVHWVRQSPGKGLEWLGVIWSGGSTDYNAAFISRLSISKDTSKSQVFFKMNSLQADDTAIYYCARELIHAMDNWGQGTSVTVSS
VL: DIQMTQSPASLSVSVGETVTITCRASENIYSNLAWYQQKQGNSPQLLVFAATNLADGVPSRFSGSGSGTQYSLKINSLQSEDFGTYYCQHFWGTPTFGGGTKLEIK
Take B1: the “control of tumor growth” value in assay [1] was “no longer showed the ability to control tumor growth”.

B2: 5E7 (antibody, V domains shown)
VH: QVQLQQPGAELVKPGASVKLSCKASGYIFTSYWMHWVKQRPGQGLEWIGEIDPSDSYTNYNQKFKGKATLTLDKSSSTTYMQLSSLTSEDSAVYYCVRGYGNYGDYWGQGTTLTVSS
VL: DVVMTQAAFSNPVTLGTSASISCRSSKSLLHSNGITYLYWYLQKPGQSPQLLIYQMSNLASGVPDRFSSSGSGTDFTLRISRVEAEDVGVYYCAQNLELPWTFGGGTKLEIK
For the molecule B2, the figures for the induction of internalization result in assay [2] and in assay [3] were “as efficient as the enfortumab in inducing internalization” and “more efficient than enfortumab in inducing internalization”, respectively. The “control of tumor growth” value in assay [1] is listed as “strong ability to prevent tumor growth”. In assay [4], the “killing of SUM190 cells (cell viability)” value is listed as “more potent that mAb3 conjugated to camptothecin analogue”.

B3: 10B12: anti-Nectin-4 antibody, VH SEQ ID NO: 24, VL SEQ ID NO: 25, binds junction of domain C1 and V (antibody, listed as Mus musculus, V domains shown)
VH: QVQLQQPGAELVKPGASVKLSCKASGYTFTSYWMHWVKQRPGQGLEWIGEIDPSDSYTNYNQKFKGKATLTVDKSSSTAYMQLSSLTSEDSAVYYCVRGYGNYGDYWGQGTTLTVSS
VL: DIVMTQAAFSNPVTLGTSASISCRSSKSLLHSNGITYLYWYLQKPGQSPQLLIYQMSNLASGVPDRFSSSGSGTDFTLRISRVEAEDVGVYYCAQNLELPWTFGGGTKLEIK
In the case of B3, the induction of internalization result in assay [2] is recorded as “as efficient as the enfortumab in inducing internalization”.
